Test results from patent US20060018896.

B1: functionally active murine recombinant MASP-2 protein (protein)
chain: SKWPEPVFGRLVSPGFPEKYADHQDRSWTLTAPPGYRLRLYFTHFDLELSYRCEYDFVKLSSGTKVLATLCGQESTDTEQAPGNDTFYSLGPSLKVTFHSDYSNEKPFTGFEAFYAAEDVDECRVSLGDSVPCDHYCHNYLGGYYCSCRAGYVLHQNKHTCSALCSGQVFTGKSGYLSSPEYPQPYPKLSSCTYSIRLEDGFSVILDFVESFDVETHPEAQCPYDSLKIQTDKGEHGPFCGKTLPPRIETDSHKVTITFATDESGNHTGWKIHYTSTARPCPDPTAPPNGSISPVQAIYVLKDRFYVFCKTGFELLQGSVPLKSFTAVCQKDGSWDRPMPECS
B2: catalytically inactive murine MASP-2A recombinant protein (protein)
chain: B1 chain

Molecular target: purified human C4, P0C0L4
Sequence (P0C0L4 whole entry, looked up): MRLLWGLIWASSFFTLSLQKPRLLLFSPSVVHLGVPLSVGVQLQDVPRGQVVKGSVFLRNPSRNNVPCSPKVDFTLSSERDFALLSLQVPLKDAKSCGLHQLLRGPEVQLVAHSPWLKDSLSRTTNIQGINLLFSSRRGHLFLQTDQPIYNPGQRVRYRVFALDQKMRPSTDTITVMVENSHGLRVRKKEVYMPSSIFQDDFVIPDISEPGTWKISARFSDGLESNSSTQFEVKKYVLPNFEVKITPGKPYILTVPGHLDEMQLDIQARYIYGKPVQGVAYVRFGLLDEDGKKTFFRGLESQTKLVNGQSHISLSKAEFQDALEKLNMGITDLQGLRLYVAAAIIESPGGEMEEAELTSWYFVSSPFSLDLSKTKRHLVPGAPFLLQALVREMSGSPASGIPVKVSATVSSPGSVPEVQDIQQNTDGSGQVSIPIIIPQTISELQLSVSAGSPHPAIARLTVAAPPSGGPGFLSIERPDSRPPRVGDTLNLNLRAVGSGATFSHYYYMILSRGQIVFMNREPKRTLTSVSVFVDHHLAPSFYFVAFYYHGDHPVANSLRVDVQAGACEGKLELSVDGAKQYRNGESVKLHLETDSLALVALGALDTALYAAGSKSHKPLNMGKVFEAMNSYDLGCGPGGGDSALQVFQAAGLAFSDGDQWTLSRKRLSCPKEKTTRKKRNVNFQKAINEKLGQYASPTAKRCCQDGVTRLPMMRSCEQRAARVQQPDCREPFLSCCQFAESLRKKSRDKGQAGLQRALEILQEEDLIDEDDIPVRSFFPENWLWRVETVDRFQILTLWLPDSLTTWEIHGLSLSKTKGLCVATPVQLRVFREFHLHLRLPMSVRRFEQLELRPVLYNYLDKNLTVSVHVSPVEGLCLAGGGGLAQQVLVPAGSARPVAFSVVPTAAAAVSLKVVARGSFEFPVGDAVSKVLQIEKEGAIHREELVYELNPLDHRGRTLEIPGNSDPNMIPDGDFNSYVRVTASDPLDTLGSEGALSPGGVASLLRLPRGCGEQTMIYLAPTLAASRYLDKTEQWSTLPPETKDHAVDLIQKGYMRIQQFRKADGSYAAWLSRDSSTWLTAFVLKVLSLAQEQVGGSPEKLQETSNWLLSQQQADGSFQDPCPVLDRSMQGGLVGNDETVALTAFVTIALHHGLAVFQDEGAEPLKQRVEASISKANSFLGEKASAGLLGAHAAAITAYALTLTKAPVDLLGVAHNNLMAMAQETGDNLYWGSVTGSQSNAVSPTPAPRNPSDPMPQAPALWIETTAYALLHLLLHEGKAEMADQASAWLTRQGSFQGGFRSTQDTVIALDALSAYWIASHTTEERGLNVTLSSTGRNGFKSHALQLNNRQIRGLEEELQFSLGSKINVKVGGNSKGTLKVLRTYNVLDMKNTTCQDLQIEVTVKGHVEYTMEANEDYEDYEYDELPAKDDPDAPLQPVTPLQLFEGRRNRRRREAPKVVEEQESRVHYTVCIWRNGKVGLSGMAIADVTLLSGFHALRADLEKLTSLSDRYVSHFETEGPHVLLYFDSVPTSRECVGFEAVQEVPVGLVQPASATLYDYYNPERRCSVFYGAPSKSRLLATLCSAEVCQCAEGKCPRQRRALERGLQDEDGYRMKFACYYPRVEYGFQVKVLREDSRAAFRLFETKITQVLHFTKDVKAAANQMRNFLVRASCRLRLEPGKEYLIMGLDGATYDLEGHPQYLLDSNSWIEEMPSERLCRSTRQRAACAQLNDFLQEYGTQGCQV

| Protein | lectin pathway-dependent C4 activation (C4 cleavage assay, C4b deposition on mannan) in pooled MASP-2-/- mouse serum |
| --- | --- |
| B1 | restored lectin pathway-dependent C4 activation in a protein concentration dependent manner |
| B2 | did not restore C4 activation |
